Reference: patent US4944948A, “EGF/Liposome gel composition and method” (Liposome Technology, Inc., priority 1989, dated 1990)
Read-outs that look alike come from different tables or passages of the source.

Columns and labels:
[1] = 37° C., 25% human plasma/saline, 0.08 μm filter
Method: Liposome formulations were evaluated in vitro by release rates of 125 I-rh-EGF into the receiver compartments of percutaneous absorption cells that were continuously perfused with 25% pooled human plasma/saline.
A conventional two-chamber absorption cell, using a bath temperature of 37° C., was employed (Bronaugh). A 25 mm, 0.08 μm diameter Nuclepore (Pleasanton, Calif.) polycarbonate filter was used to separate the donor from the flow-through acceptor compartment. […] The ^125 I-rh-EGF preparation was mixed with an equal quantity of 25% pooled human plasma/isotonic saline and 200 μl aliquots were immediately applied to the donor compartments. Parafilm was used to occlude the donor compartment and prevent evaporative loss. The perfusate was collected by fraction collector into scintillation vials and mounted in a Packard TriCarg 20000. rh-EGF flux was calculated from the specific activity (DPM per μg peptide). Clearance rate half-lives were determined for individual percutaneous absorption cells as described below.
In this single phase system, it is possible to determine the concentration of peptide remaining in the donor compartment by subtracting cumulative peptide in the measured in the receiver compartment from total peptide applied to the donor compartment. […]

[2] = for % Lost (of total dose administered): from first order rate constants
Method: The amount of radioactivity remaining in the injected eye was measured for up to 96 hours after injection (until at least 90% of the initial radioactivity had disappeared). An external NaI crystal detector/ratemeter (The Nucleus Model L) was placed directly over the eye and radioactivity measured for 2 minutes and recorded on a chart recorder. […] The mean chart deflection during each recording was taken as the measurement at that time point. The first reading was taken immediately after injection ("zero time") and subsequent measurements were converted to a percentage of this initial amount.
Individual radioactivity versus time data were recorded for each animal, and the mean values for each animal group (N=4-6) were calculated.
Each plot was used to calculate first order rate constants for EGF disappearance from the eye for each formulation by a non linear least squares fitting method (RSTRIP, MicroMath, Salt Lake City, Utah).
At =A0 * e ^-kt or 1n(At)=1n (A0)-kt
where k=0.693 / t1/2, the amount of EGF lost from the eye during any day can be calculated.

[3] = rabbit, subconjunctival injection

CC[C@H](C)[C@@H]1NC(=O)[C@H](Cc2ccc(O)cc2)NC(=O)CNC(=O)[C@H](C(C)C)NC(=O)[C@H](C(C)C)NC(=O)[C@@H](NC(=O)[C@H](CC(N)=O)NC(=O)[C@@H]2CSSC[C@@H]3NC(=O)[C@H](Cc4ccc(O)cc4)NC(=O)CNC(=O)[C@H](CC(=O)O)NC(=O)[C@H](Cc4c[nH]cn4)NC(=O)[C@H](CO)NC(=O)[C@H](CC(C)C)NC(=O)[C@@H]4CCCN4C(=O)[C@@H](NC(=O)[C@H](CCC(=O)O)NC(=O)[C@H](CO)NC(=O)[C@H](CC(=O)O)NC(=O)[C@H](CO)NC(=O)[C@@H](N)CC(N)=O)CSSC[C@H](NC(=O)[C@H](C(C)C)NC(=O)CNC(=O)[C@H](CC(=O)O)NC(=O)[C@H](Cc4c[nH]cn4)NC(=O)[C@H](CC(C)C)NC3=O)C(=O)N[C@@H](CCSC)C(=O)N[C@@H](Cc3ccc(O)cc3)C(=O)N[C@@H]([C@@H](C)CC)C(=O)N[C@@H](CCC(=O)O)C(=O)N[C@@H](C)C(=O)N[C@@H](CC(C)C)C(=O)N[C@@H](CC(=O)O)C(=O)N[C@@H](CCCCN)C(=O)N[C@@H](Cc3ccc(O)cc3)C(=O)N[C@@H](C)C(=O)N2)CSSC[C@@H](C(=O)N[C@@H](CCC(N)=O)C(=O)N[C@@H](Cc2ccc(O)cc2)C(=O)N[C@@H](CCCNC(=N)N)C(=O)N[C@@H](CC(=O)O)C(=O)N[C@@H](CC(C)C)C(=O)N[C@@H](CCCCN)C(=O)N[C@@H](Cc2c[nH]c3ccccc23)C(=O)N[C@@H](Cc2c[nH]c3ccccc23)C(=O)N[C@@H](CCC(=O)O)C(=O)N[C@@H](CC(C)C)C(=O)N[C@@H](CCCNC(=N)N)C(=O)O)NC(=O)[C@H](CCCNC(=N)N)NC(=O)[C@H](CCC(=O)O)NC(=O)CNC1=O [Free EGF, Epidermal Growth Factor]
Half-life of EGF release in vitro (slow phase for liposomes) [1]: about 1.8 hours | % Lost (of total dose administered) ([2]; Day 1, includes initial burst): 100% | % Lost (of total dose administered) ([2]; Day 2): 0% | % Lost (of total dose administered) ([2]; Day 3): 0% | % Lost (of total dose administered) ([2]; Day 4): 0% | % Lost (of total dose administered) ([2]; Day 5): 0% | % Lost (of total dose administered) ([2]; Day 6): 0% | % Lost (of total dose administered) ([2]; Day 7): 0% | Dose remaining in the eye ([2]; after 3 hours): Less than 15% | EGF available at the conjunctival site ([2]; one day after administration): substantially no EGF was available | Half life of EGF retention in the eye [2, 3]: 1 h | Half-life of EGF disappearance from the eye [2, 3]: 1.0 h | Half life of EGF retention in the eye ([2]; rabbit, subconjunctival injection, listed as unencapsulated EGF): 1.0 h | Rate constant of EGF disappearance from the eye ([2]; rabbit, subconjunctival, fit of loglinear portion after initial burst): 0.69 h⁻¹
